Experimental data reported in patent publication US20090098130A1 (published 2009).
Non-standard residues stand in square brackets, D forms with d. No end group written: not given here. Aib = CC(C)(N)C(=O)O

Biological target: glucagon-like peptide 1 receptor (GLP-1R)
Assay: cell-based or functional assay

B1: GA targeting peptide of SEQ ID NO: 9 (peptide)
peptide: H[Aib]EGTFTSDLSKQLEEEAVRLAIEFLKN
B1 was tested, and the “EC50 (µM), glucose-stimulated insulin secretion (GSIS) assay on pancreatic β cell cultures” value was < 10 µM.

B2: GA targeting peptide of SEQ ID NO: 10 (peptide)
peptide: H[Aib]EGTFTSDLSKQLEEEAVRLAIEFLKNGGPSSGAPPPS
In the case of B2, the “EC50 (µM), glucose-stimulated insulin secretion (GSIS) assay on pancreatic β cell cultures” value is reported as < 10 µM.
